{"source": "paper PMC9723946", "about": "(The Journal of Biological Chemistry, 2022)", "binders": {"B1": {"name": "native USP10 peptide HSPQYIFGDFSPDEFNQFFV (SPOT array) (peptide)", "peptide": "HSPQYIFGDFSPDEFNQFFV"}, "B2": {"name": "USP10 peptide G11A (SPOT array) (peptide)", "peptide": "HSPQYIFADFSPDEFNQFFV"}, "B3": {"name": "USP10 peptide F13Y (SPOT array) (peptide)", "peptide": "HSPQYIFGDYSPDEFNQFFV"}, "B4": {"name": "USP10 peptide F13V (SPOT array) (peptide)", "peptide": "HSPQYIFGDVSPDEFNQFFV"}, "B5": {"name": "USP10 peptide F13L (SPOT array) (peptide)", "peptide": "HSPQYIFGDLSPDEFNQFFV"}, "B6": {"name": "USP10 peptide F13I (SPOT array) (peptide)", "peptide": "HSPQYIFGDISPDEFNQFFV"}, "B7": {"name": "USP10 peptide F13W (SPOT array) (peptide)", "peptide": "HSPQYIFGDWSPDEFNQFFV"}, "B8": {"name": "Caprin1-derived dodecamer reporter peptide F*-YNFIQDSMLDFE (peptide)", "peptide": "{fluorescein-Ahx}-YNFIQDSMLDFE"}, "B9": {"name": "Caprin1 peptide N371I (SPOT array) (peptide)", "peptide": "QGPYIFIQDSMLDFENQTLD"}, "B10": {"name": "Caprin1 peptide N371L (SPOT array) (peptide)", "peptide": "QGPYLFIQDSMLDFENQTLD"}, "B11": {"name": "Caprin1 peptide N371F (SPOT array) (peptide)", "peptide": "QGPYFFIQDSMLDFENQTLD"}, "B12": {"name": "Caprin1 peptide N371W (SPOT array) (peptide)", "peptide": "QGPYWFIQDSMLDFENQTLD"}, "B13": {"name": "Caprin1 peptide N371C (SPOT array) (peptide)", "peptide": "QGPYCFIQDSMLDFENQTLD"}, "B14": {"name": "Caprin1 peptide N371D (SPOT array) (peptide)", "peptide": "QGPYDFIQDSMLDFENQTLD"}, "B15": {"name": "Caprin1 peptide N371E (SPOT array) (peptide)", "peptide": "QGPYEFIQDSMLDFENQTLD"}, "B16": {"name": "Caprin1 peptide N371H (SPOT array) (peptide)", "peptide": "QGPYHFIQDSMLDFENQTLD"}, "B17": {"name": "Caprin1 peptide N371K (SPOT array) (peptide)", "peptide": "QGPYKFIQDSMLDFENQTLD"}, "B18": {"name": "Caprin1 peptide N371M (SPOT array) (peptide)", "peptide": "QGPYMFIQDSMLDFENQTLD"}, "B19": {"name": "Caprin1 peptide N371Q (SPOT array) (peptide)", "peptide": "QGPYQFIQDSMLDFENQTLD"}, "B20": {"name": "Caprin1 peptide N371R (SPOT array) (peptide)", "peptide": "QGPYRFIQDSMLDFENQTLD"}, "B21": {"name": "Caprin1 peptide N371S (SPOT array) (peptide)", "peptide": "QGPYSFIQDSMLDFENQTLD"}, "B22": {"name": "Caprin1 peptide N371T (SPOT array) (peptide)", "peptide": "QGPYTFIQDSMLDFENQTLD"}, "B23": {"name": "Caprin1 peptide N371V (SPOT array) (peptide)", "peptide": "QGPYVFIQDSMLDFENQTLD"}, "B24": {"name": "Caprin1 peptide N371Y (SPOT array) (peptide)", "peptide": "QGPYYFIQDSMLDFENQTLD"}, "B25": {"name": "native Caprin1 peptide QGPYNFIQDSMLDFENQTLD (SPOT array) (peptide)", "peptide": "QGPYNFIQDSMLDFENQTLD"}, "B26": {"name": "Caprin1 peptide I373F (SPOT array) (peptide)", "peptide": "QGPYNFFQDSMLDFENQTLD"}, "B27": {"name": "Caprin1 peptide S376C (SPOT array) (peptide)", "peptide": "QGPYNFIQDCMLDFENQTLD"}, "B28": {"name": "Caprin1 peptide M377F (SPOT array) (peptide)", "peptide": "QGPYNFIQDSFLDFENQTLD"}, "B29": {"name": "Caprin1 peptide M377Y (SPOT array) (peptide)", "peptide": "QGPYNFIQDSYLDFENQTLD"}, "B30": {"name": "Caprin1 peptide I373L (SPOT array) (peptide)", "peptide": "QGPYNFLQDSMLDFENQTLD"}, "B31": {"name": "Caprin1 peptide D375E (SPOT array) (peptide)", "peptide": "QGPYNFIQESMLDFENQTLD"}, "B32": {"name": "Caprin1 peptide L378I (SPOT array) (peptide)", "peptide": "QGPYNFIQDSMIDFENQTLD"}, "B33": {"name": "Caprin1 peptide Y370F (SPOT array) (peptide)", "peptide": "QGPFNFIQDSMLDFENQTLD"}}, "note": "Where no end group is shown, it is not given here. Ahx = NCCCCCC(=O)O"}
{"target": "T1, His-tagged G3BP1 NTF2 (peptide arrays) (human, UniProt Q13283 1-139)", "T1 sequence (Q13283 1-139)": "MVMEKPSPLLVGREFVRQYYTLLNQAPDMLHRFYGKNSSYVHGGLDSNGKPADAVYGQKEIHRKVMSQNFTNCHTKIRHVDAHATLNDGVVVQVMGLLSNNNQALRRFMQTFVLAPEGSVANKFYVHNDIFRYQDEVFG", "assay": "peptide or protein array"}
{"binder": "B1", "binding result": "binds"}
{"binder": "B2", "binding result": "binds"}
{"binder": "B3", "binding result": "binds"}
{"binder": "B4", "binding result": "binds"}
{"binder": "B5", "binding result": "binds"}
{"binder": "B6", "binding result": "binds"}
{"binder": "B7", "binding result": "binds"}
{"target": "G3BP1 NTF2-like domain (1-139) S38A (human, UniProt Q13283 1-139, S38A)", "sequence (Q13283 1-139 S38A)": "as the sequence (Q13283 1-139) above, with S38A counted along it", "assay": "fluorescence polarisation", "units": {"Kd": "µM"}}
{"binder": "B8", "Kd": 7.3}
{"target": "G3BP1 NTF2-like domain (1-139) S38T (human, UniProt Q13283 1-139, S38T)", "sequence (Q13283 1-139 S38T)": "as the sequence (Q13283 1-139) above, with S38T counted along it", "assay": "fluorescence polarisation", "units": {"Kd": "µM"}}
{"binder": "B8", "Kd": 11.8}
{"target": "G3BP1 NTF2-like domain (1-139) S38G (human, UniProt Q13283 1-139, S38G)", "sequence (Q13283 1-139 S38G)": "as the sequence (Q13283 1-139) above, with S38G counted along it", "assay": "fluorescence polarisation", "units": {"Kd": "µM"}}
{"binder": "B8", "Kd": 10.5}
{"target": "T1, His-tagged G3BP1 NTF2 (peptide arrays)", "assay": "peptide or protein array", "remark": "another data set of the same source"}
{"binder": "B9", "binding result": "binds"}
{"binder": "B10", "binding result": "binds"}
{"binder": "B11", "binding result": "binds"}
{"binder": "B12", "binding result": "binds"}
{"binder": "B13", "binding result": "binds"}
{"binder": "B14", "binding result": "binds"}
{"binder": "B15", "binding result": "binds"}
{"binder": "B16", "binding result": "binds"}
{"binder": "B17", "binding result": "binds"}
{"binder": "B18", "binding result": "binds"}
{"binder": "B19", "binding result": "binds"}
{"binder": "B20", "binding result": "binds"}
{"binder": "B21", "binding result": "binds"}
{"binder": "B22", "binding result": "binds"}
{"binder": "B23", "binding result": "binds"}
{"binder": "B24", "binding result": "binds"}
{"binder": "B25", "binding result": "binds"}
{"binder": "B26", "binding result": "binds"}
{"binder": "B27", "binding result": "binds"}
{"binder": "B28", "binding result": "binds"}
{"binder": "B29", "binding result": "binds"}
{"binder": "B30", "binding result": "binds"}
{"binder": "B31", "binding result": "binds"}
{"binder": "B32", "binding result": "binds"}
{"binder": "B33", "binding result": "binds"}
{"target": "G3BP1 NTF2-like domain (1-139) F33W (human, UniProt Q13283 1-139, F33W)", "sequence (Q13283 1-139 F33W)": "as the sequence (Q13283 1-139) above, with F33W counted along it", "assay": "fluorescence polarisation", "units": {"Kd": "µM"}}
{"binder": "B8", "Kd": 79.3}
{"target": "G3BP1 NTF2-like domain (1-139) F15W (human, UniProt Q13283 1-139, F15W)", "sequence (Q13283 1-139 F15W)": "as the sequence (Q13283 1-139) above, with F15W counted along it", "assay": "fluorescence polarisation", "units": {"Kd": "µM"}}
{"binder": "B8", "Kd": 9.3}
{"target": "G3BP1 NTF2-like domain (1-139) F15/33W (human, UniProt Q13283 1-139, F15W | F33W)", "sequence (Q13283 1-139 F15W/F33W)": "as the sequence (Q13283 1-139) above, with F15W, F33W counted along it", "assay": "fluorescence polarisation", "units": {"Kd": "µM"}}
{"binder": "B8", "Kd": 256}
{"target": "G3BP1 NTF2-like domain (1-139) TripleW (F15W/F33W/F124W) (human, UniProt Q13283 1-139, F15W | F33W | F124W)", "sequence (Q13283 1-139 F15W/F33W/F124W)": "as the sequence (Q13283 1-139) above, with F15W, F33W, F124W counted along it", "assay": "fluorescence polarisation", "units": {"Kd": "µM"}}
{"binder": "B8", "Kd": 240}
{"target": "G3BP1 NTF2-like domain (1-139) F15/124W (human, UniProt Q13283 1-139, F15W | F124W)", "sequence (Q13283 1-139 F15W/F124W)": "as the sequence (Q13283 1-139) above, with F15W, F124W counted along it", "assay": "fluorescence polarisation", "units": {"Kd": "µM"}}
{"binder": "B8", "Kd": 14.4}
{"target": "G3BP1 NTF2-like domain (1-139) F33/124W (human, UniProt Q13283 1-139, F33W | F124W)", "sequence (Q13283 1-139 F33W/F124W)": "as the sequence (Q13283 1-139) above, with F33W, F124W counted along it", "assay": "fluorescence polarisation", "units": {"Kd": "µM"}}
{"binder": "B8", "Kd": 133}
{"target": "G3BP1 NTF2-like domain (1-139), WT (human, UniProt Q13283 1-139)", "sequence (Q13283 1-139)": "as the sequence (Q13283 1-139) above", "assay": "fluorescence polarisation", "units": {"Kd": "µM"}}
{"binder": "B8", "Kd": 1.7}
{"target": "G3BP1 NTF2-like domain (1-139) F124W (human, UniProt Q13283 1-139, F124W)", "sequence (Q13283 1-139 F124W)": "as the sequence (Q13283 1-139) above, with F124W counted along it", "assay": "fluorescence polarisation", "units": {"Kd": "µM"}}
{"binder": "B8", "Kd": 1.7}
